{"source": "paper PMC2137936", "about": "“Molecular Analysis of Thymopentin Binding to HLA-DR Molecules” (PLoS ONE, 2007)", "binders": {"B1": {"name": "FITC-labeled thymopentin (TP5) (peptide)", "peptide": "RKDVY", "modifications": "also: FITC label, position not given here", "notes": "thymopentin (TP5), synthetic pentapeptide corresponding to position 32~36 of thymopoietin; also called FITC-labeled TP5; fluorescent-labeled TP5; source: synthetic peptide, conjugated with FITC (Sigma) and purified"}}, "target": "human class II major histocompatibility complex DR molecules (HLA-DR) on EBV-transformed B cells (human (endogenous in EBV-transformed B …, UniProt P01903 26-254; P01911 30-266)", "test": "flow cytometry on cells; 3x10^5 living EBV-transformed B cells incubated with various concentrations of FITC-labeled TP5 in PBS pH 7.4 with 1% BSA, 2 h, 37°C; washed; MFI read; apparent Kd from a double-reciprocal plot of the equilibrium data", "settings": "one partner purified", "note": "No end group written: not given here."}
{"binder": "B1", "values": [{"measurement": "Kd", "result": 7.2, "unit": "µM"}]}
